Results on 1 substance are retold here after patent US20210246218A1.

The test has as its target human FcγRIIB-Ile232 on CHO-K1 cells (human) (UniProt P31994). The test can be described thus: flow cytometry on CHO-huFcγRIIB cells, anti-human Fc F(ab')2. On the technique in general: In flow cytometry, cells or beads pass a laser one at a time.

Chain of human FcγRIIB-Ile232 on CHO-K1 cells (human) (P31994 43-310): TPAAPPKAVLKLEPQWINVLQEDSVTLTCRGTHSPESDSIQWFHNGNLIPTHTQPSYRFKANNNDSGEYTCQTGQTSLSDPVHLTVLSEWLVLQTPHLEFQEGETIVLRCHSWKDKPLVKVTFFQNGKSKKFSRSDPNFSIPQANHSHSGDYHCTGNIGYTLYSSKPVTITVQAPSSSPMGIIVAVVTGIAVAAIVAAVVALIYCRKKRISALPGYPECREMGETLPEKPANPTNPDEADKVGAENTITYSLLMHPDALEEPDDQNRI

As a reminder, the EC50 (read off the curve) is the concentration needed to bring the measured effect to its halfway point. High values mean weaker potency, low ones greater potency. Substance Avastin (antibody) gave an EC50 (read off the curve) of 5 µg/mL.
